US11160869B2 (priority 2019, dated 2021)

System: IFNγ, IL-1β, IL-2, IL-6, IL-8, TNFα
Experiment: Single oral capsule dose in NHP: plasma proinflammatory cytokines
Assay type: in vivo, Macaca fascicularis
Protocol: The panel of cytokines (IFNγ, IL-1β, IL-2, IL-6, and IL-8) was evaluated using a multiplex kit available from MSD. The assays in this panel were sandwich immunoassays. The MSD plate came precoated with capture antibodies on independent and pre-defined spots, and samples were quantitated against an 8-point standard curve prepared using a mixture of the cytokines (Proinflammatory Panel 1 (human) Calibrator Blend) from MSD. The standards included 0 pg/mL and these concentration ranges: IFNγ (0.37-1500 pg/mL), IL-1β ([…]), IL-2 (0.36-1490 pg/mL), IL-6 (0.18-721 pg/mL) and IL-8 (0.14-553 pg/mL).
The MSD plate (pre-coated with capture antibodies) was washed 3 times with PBST before use. […] Following a wash step, 2×MSD Read buffer was added to the wells of the plate, and the plate read using the MSD Sector Imager 600 plate reader. […]
The purpose of the TNFα immunoassay was to quantify NHP TNFα concentration in plasma. […] Samples were quantitated using an 8-point standard curve prepared from a human TNFα calibrator that ranges in concentration from 5.6-4052 pg/mL and includes 0 pg/mL.
The biotinylated anti-NHP TNFα capture antibody was added to a MSD Small Spot Streptavidin plate and incubated for an hour at RT with shaking. […] Following a wash step, 2×MSD Read buffer was added to the wells of the plate, and the plate read using the MSD Sector Imager 600 plate reader. […]

B1: IL-10 delivery construct: recombinant homodimeric fusion protein: N-terminal methionine, cholix386 domain, polyGlySer spacer, recombinant human IL-10 (protein)
chain: MVEEALNIFDECRSPCSLTPEPGKPIQSKLSIPSDVVLDEGVLYYSMTINDEQNDIKDEDKGESIITIGEFATVRATRHYVNQDAPFGVIHLDITTENGTKTYSYNRKEGEFAINWLVPIGEDSPASIKISVDELDQQRNIIEVPKLYSIDLDNQTLEQWKTQGNVSFSVTRPEHNIAISWPSVSYKAAQKEGSRHKRWAHWHTGLALCWLVPMDAIYNYITQQNCTLGDNWFGGSYETVAGTPKVITVKQGIEQKPVEQRIHFSKGNAMSALAAHRVCGVPLETLARSRKPRDLTDDLSCAYQAQNIVSLFVATRILFSHLDSVFTLNLDEQEPEVAERLSDLRRINENNPGMVTQVLTVARQIYNDYVTHHPGLTPEQTSAGAQAGGGGSGGGGSGGGGSPGQGTQSENSCTHFPGNLPNMLRDLRDAFSRVKTFFQMKDQLDNLLLKESLLEDFKGYLGCQALSEMIQFYLEEVMPQAENQDPDIKAHVNSLGENLKTLRLRLRRCHRFLPCENKSKAVEQVKNAFNKLQEKGIYKAMSEFDIFINYIEAYMTMKIRN
modifications: homodimer
plasma IFNγ, IL-1β, IL-2, IL-8, IL-6 (1, 4, 20.5, 82 mg oral capsules): not associated with any consistent trends
plasma TNFα (all samples): below the limit of detection
